Experimental data: the supplement of paper PMC11780869

Test system: Bacillus subtilis
Assay: cleaved RNA product abundance (RNA/gDNA barcode ratio) relative to median wild-type variant (ratio to wild type); higher = more accumulation of the downstream cleavage product
Summary of the method: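 Sequencing of barcodes from gel-selected, reverse-transcribed cleaved RNA and from genomic DNA, with UMI collapsing, yielded a per-construct RNA:gDNA ratio. Scaled to the median construct with the unmutated site, this ratio is the cleaved product abundance. The barcoded reporters (truncated aprE or tetM mRNAs with mutagenized RNase Y cleavage-site windows) were integrated into the B. subtilis chromosome, and cultures grew in LB at 37°C from OD600 0.0003 to 0.3.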

[1] = experiment (reporter, strain, medium): exp 4a: truncated aprE reporter, strain BJT201 with 2% xylose (RNase J1 expressed), cleavage site: cggR-gapA (positions -7 to +36 mutated)
[2] = experiment (reporter, strain, medium): exp 8a: truncated aprE reporter, strain BJT201 with 2% xylose (RNase J1 expressed), cleavage site: glnRA (positions -5 to +31 mutated)
[3] = experiment (reporter, strain, medium): exp 2b: truncated aprE reporter, strain BJT200, cleavage site: cggR-gapA (positions -7 to +36 mutated)

Row | Sequence | cleaved RNA product abundance [1] | cleaved RNA product abundance [2] | cleaved RNA product abundance [3]
1 | ACAGACGAAGGAGCCGCAAAGAAATTATTAAGGGATGAATAATCCCCCAATATAAATATCTCTCACTTATTTAAA | 0.465 |  | 
2 | CGACATGTCCCGCTTCTTTCATTAATCCGTTAGCAACTGTTTTGCTATAAACTTTTACCTTTTAAGAGGAGGAAT |  | 0.318 | 
3 | ACAGACGAAGGAGCCGCAAAGAAGTGATTAAGGTATGAATAATCCCTCAATATAAATATCTCTCACTTATTTAAA | 0.113 |  | 0.0827
4 | CGACATGTCCCGCTTCTTTCATTAATCCGTTAGCAACTGTTTTACTATATACATTTACTTTTTAAGAGGAGGAAT |  | 0.621 | 
5 | ACAGACGAAGGAGCCGCAAAGAAGATATTAAGGGATGAATAATCCCTCAATTTAAATATCTCTCACTTATTTAAA |  |  | 0.157
6 | ACAGACGAAGGAGCCGCAAACAAGTTATTAAGGGTTGAATAATCCCTCAATATAAATATCTCTCACTTATTTAAA | 0.183 |  | 
7 | CGACATGTCCCGCTTCTTTCATTAATCCGTTAGCAACTGCTTTGCTATATACATTTACCTTTTAAGAGGAGGAAT |  | 0.307 | 
8 | ACAGACGAAGGAGCCGCAAAGAAGTTATTAAGTGATGAATAATCCCTGAATATAAATATCTCTCACTTATTTAAA | 0.0547 |  | 0.0871
9 | ACAGACGAAGGAGCCGCAAAGAAGTTATTAAGGGATGAATAATCCCTCAATATAAATATATCTCACTTATTTAAA | 1.02 |  | 0.976
10 | ACAGACGAAGGAGCCGCAAAGAAATTATTAAGGGATGAATATTCCCTCAATATAAATATCTCTCACTTATTTAAA | 0.595 |  | 
11 | CGACATGTCCCGCTTCTTTCATTAATACATTAGCAACTGTTTTGCTATATACATTTACCTTTTAAGAGGAGGAAT |  | 0.748 | 
12 | ACAGACGAAGGAGCCGCAAAGAAGTTATTAAGGGATCAATAATCCCTCAATATAAATTTCTCTCACTTATTTAAA | 0.645 |  | 
13 | ACAGACGAAGGAGCCGCAAAGAAGATATTACGGGATGAATAATCCCTCAATATAAATATCTCTCACTTATTTAAA | 0.351 |  | 0.409
14 | ACAGACGAAGGAGCCGCAAAGAAGTTATTAAAGGATGAATCATCCCTCAATATAAATATCTCTCACTTATTTAAA | 0.212 |  | 0.178
15 | CGACATGTCCCGCTTCTTTCATTAATCCGTTAGGAACTGTTTTTCTATATACATTTACCTTTTAAGAGGAGGAAT |  | 0.453 | 
16 | ACAGACGAAGGAGCCGCAAAGAAGTTATTAACGGATGAATAATACCTCAATATAAATATCTCTCACTTATTTAAA | 0.136 |  | 0.0908
17 | ACAGACGAAGGAGCCGCAAAGAAGTTATTAAGGTATGAATAATCACTCAATATAAATATCTCTCACTTATTTAAA | 0.142 |  | 
18 | ACAGACGAAGGAGCCGCAAAGAAGTTATTAGGAGATGAATAATCCCTCAATATAAATATCTCTCACTTATTTAAA | 0.24 |  | 
19 | ACAGACGAAGGAGCCGCAAAGAAGTTATTAAAGGATGAATAATCCCTCAATACAAATATCTCTCACTTATTTAAA | 0.0875 |  | 0.126
20 | ACAGACGAAGGAGCCGCAAAGAACTTATTAAGGGATGAATAATCCCTCAACATAAATATCTCTCACTTATTTAAA | 0.227 |  | 
21 | ACAGACGAAGGAGCCGCAAAGAAGTTCTTAAGGGATGAATGATCCCTCAATATAAATATCTCTCACTTATTTAAA |  |  | 0.107

Row | Sequence | cleaved RNA product abundance [1] | cleaved RNA product abundance [2] | cleaved RNA product abundance [3]
22 | ACAGACGAAGGAGCCGCAAAGAAGTTATTAAGGGATTAAGAATCCCTCAATATAAATATCTCTCACTTATTTAAA | 1.06 |  | 
23 | ACAGACGAAGGAGCCGCAAATAAGTTATTAAGGGATGAATTATCCCTCAATATAAATATCTCTCACTTATTTAAA | 0.737 |  | 0.711
24 | ACAGACGAAGGAGCCGCAAAGAACTTAATAAGGGATGAATAATCCCTCAATATAAATATCTCTCACTTATTTAAA | 0.167 |  | 
25 | ACAGACGAAGGAGCCGCAAAGAAGTTATTAAGAGATGAATAATCCCTCGATATAAATATCTCTCACTTATTTAAA | 0.0848 |  | 
26 | CGACATGTCCCGCTTCTTTCATTAATCCGTTCGCAACTGTTTTGCTATATACATTTACCTTTTAAGAGGAGGAAT |  | 0.345 | 
27 | ACAGACGAAGGAGCCGCAAAGAAGTTATTAAGGGATGAATAATACCTCAATATAAAAATCTCTCACTTATTTAAA | 0.179 |  | 0.144
28 | ACAGACGAAGGAGCCGCAAAGAAGTTATTAAGGGATGAAGATTCCCTCAATATAAATATCTCTCACTTATTTAAA | 0.68 |  | 
29 | ACAGACGAAGGAGCCGCAAAGAAGTTATTAAGGGATAAATAATCCGTCAATATAAATATCTCTCACTTATTTAAA | 0.166 |  | 0.132
30 | ACAGACGAAGGAGCCGCAAAGAAGTTATTAAGGAATGAATAATCCCTCAATATAATTATCTCTCACTTATTTAAA | 0.117 |  | 
31 | ACAGACGAAGGAGCCGCAAAGAACTTATTAAGGGATGAATAATCCCCCAATATAAATATCTCTCACTTATTTAAA | 0.25 |  | 
32 | CGACATGTCCCGCTTCTTTCATTAATCCGTTTGCAACTATTTTGCTATATACATTTACCTTTTAAGAGGAGGAAT |  | 0.859 | 
33 | CGACATGTCCCGCTTCTTTCATTAATCCGTTATCGACTGTTTTGCTATATACATTTACCTTTTAAGAGGAGGAAT |  | 0.257 | 
34 | ACAGACGAAGGAGCCGCAAAGAAGTTATTAAGGGATTAATAATACCTCAATATAAATATCTCTCACTTATTTAAA | 0.187 |  | 0.139
35 | ACAGACGAAGGAGCCGCAAAGAAGTTATCAACGGATGAATAATCCCTCAATATAAATATCTCTCACTTATTTAAA | 0.15 |  | 
36 | CGACATGTCCCGCTTCTTTCATTAATCCGTTAGCAACTGTTTTACTATATACATTTACATTTTAAGAGGAGGAAT |  | 0.688 | 
37 | CGACATGTCCCGCTTCTTTCATTAATCCGTTAGCAACTGTCTTGATATATACATTTACCTTTTAAGAGGAGGAAT |  | 0.547 | 
38 | ACAGACGAAGGAGCCGCAAAGAAGTTATTAAGAGGTGAATAATCCCTCAATATAAATATCTCTCACTTATTTAAA | 0.253 |  | 
39 | CGACATGTCCCGCTTCTTTCATTACTCCGTTTACAACTGTTTTGCTATATACATTTACCTTTTAAGAGGAGGAAT |  | 0.368 | 
40 | ACAGACGAAGGAGCCGCAAAGTAGTTATTAAGGGATGAATAATCCCTCAATTTAAATATCTCTCACTTATTTAAA | 0.221 |  | 
41 | ACAGACGAAGGAGCCGCAAAGAAGTTTTTAAGGGATGAATAATCCATCAATATAAATATCTCTCACTTATTTAAA | 0.189 |  | 0.178
42 | CGACATGTCCCGCTTCTTTCATTAATCCCTTAGCAACTGTTTTACTATATACATTTACCTTTTAAGAGGAGGAAT |  | 0.0875 | 

Row | Sequence | cleaved RNA product abundance [1] | cleaved RNA product abundance [2] | cleaved RNA product abundance [3]
43 | CGACATGTCCCGCTTCTTTCATTAATCCGTTATCAACTGTTTTGCTATATACATTTGCCTTTTAAGAGGAGGAAT |  | 0.223 | 
44 | ACAGACGAAGGAGCCGCACAGAAGTTATTAAAGGATGAATAATCCCTCAATATAAATATCTCTCACTTATTTAAA | 0.177 |  | 0.173
45 | CGACATGTCCCGCTTCTTTCATTAATCCGTTAGCAACTGTATTGGTATATACATTTACCTTTTAAGAGGAGGAAT |  | 0.175 | 
46 | ACAGACGAAGGAGCCGCAAAGAAGTTATTAAGAGATGAATCATCCCTCAATATAAATATCTCTCACTTATTTAAA | 0.139 |  | 
47 | CGACATGTCCCGCTTCTTTCATTAATCCGTTAGCATCTGTTTTGCTATATACATTTACGTTTTAAGAGGAGGAAT |  | 0.589 | 
48 | CGACATGTCCCGCTTCTTTCATTAATCCGTTGCCAACTGTTTTGCTATATACATTTACCTTTTAAGAGGAGGAAT |  | 0.264 | 
49 | ACAGACGAAGGAGCCGCAAAGAAGTTAGTAATGGATGAATAATCCCTCAATATAAATATCTCTCACTTATTTAAA | 0.141 |  | 
50 | ACAGACGAAGGAGCCGCAAAGAAGTTATTAAGAGATGCATAATCCCTCAATATAAATATCTCTCACTTATTTAAA | 0.158 |  | 0.117
51 | CGACATGTCCCGCTTCTTTCATTAATCCTTTAGCAACTGTTTTGCGATATACATTTACCTTTTAAGAGGAGGAAT |  | 0.366 | 
52 | ACAGACGAAGGAGCCGCAAAGAAGTTATTAAGGCATGAATACTCCCTCAATATAAATATCTCTCACTTATTTAAA | 0.072 |  | 
53 | CGACATGTCCCGCTTCTTTCATTATTCCGTTAGCAACTGTTCTGCTATATACATTTACCTTTTAAGAGGAGGAAT |  | 0.551 | 
54 | ACAGACGAAGGAGCCGCAAACAAGTTATTAAGGGATGAATAATCCCTCAAGATAAATATCTCTCACTTATTTAAA |  |  | 0.17
55 | ACAGACGAAGGAGCCGCAAAGAAGTTATTAAGGTATGAATAATCCCTGAATATAAATATCTCTCACTTATTTAAA | 0.0951 |  | 0.0773
56 | ACAGACGAAGGAGCCGCAAAGAATATATTAAGGGATGAATAATCCCTCAATATAAATATCTCTCACTTATTTAAA | 0.375 |  | 
57 | ACAGACGAAGGAGCCGCAAAGAACTTATTTAGGGATGAATAATCCCTCAATATAAATATCTCTCACTTATTTAAA | 0.321 |  | 0.442
58 | ACAGACGAAGGAGCCGCAGAGAAGTTATTAAGCGATGAATAATCCCTCAATATAAATATCTCTCACTTATTTAAA | 0.171 |  | 
59 | ACAGACGAAGGAGCCGCAAAGAAGTTATTAAGGGATGAATAATCCTTCAATTTAAATATCTCTCACTTATTTAAA | 0.138 |  | 0.144
60 | ACAGACGAAGGAGCCGCAAATATGTTATTAAGGGATGAATAATCCCTCAATATAAATATCTCTCACTTATTTAAA | 1.1 |  | 
61 | ACAGACGAAGGAGCCGCAAAGAAGTTATGACGGGATGAATAATCCCTCAATATAAATATCTCTCACTTATTTAAA | 0.844 |  | 
